Test results published in publication PMC11055835, “Small animal PET imaging with the ^68Ga-labeled pH (low) insertion peptide-like peptide YJL-4 in a triple-negative breast cancer mouse model” (EJNMMI Radiopharmacy and Chemistry, 2024).
Like-named read-outs stand apart in the source and are kept apart here. Peptide text beside a SMILES is read from it. * marks the point of attachment. X1 = O=C(O)CN1CCN(CC(=O)O)CC(Cc2ccc(NC(=S)*)cc2)N(CC(=O)O)CC1; NOTA = O=C(O)CN1CCN(CC(=O)O)CCN(CC(=O)*)CC1; Ahx = NCCCCCC(=O)O

Legend:
[1] = Serum stability in mouse serum; type: in vitro ADME
Procedure: (§1) Two hundred microliters of each ^68Ga-labeled peptide (18.5 MBq) was mixed with 1.0 mL of fresh human serum (or mouse serum) and incubated at 37 °C, and the radiochemical purity was detected at 30, 60, 120, and 240 min after mixing.

[2] = Serum stability in human serum; type: in vitro ADME
Procedure: as §1

[3] = In vivo biodistribution; set-up: species or system BALB/c nude mice; conditions: female, BALB/c nude, mouse, iv, 1.85 MBq/200 uL, total radioactivity
Source text: Twenty-four four- to five-week-old female specific pathogen-free (SPF) BALB/c nude mice (Hangzhou Ziyuan Experimental Animal Technology Co., Ltd., China, license number: […] The animal studies were approved by the ethics committee of Qingdao University, and the management of the animals adhered to the animal ethics standards. Eighteen tumor-bearing nude mice were selected for in vivo biodistribution experiments when the tumor diameter reached 0.8–1.0 cm. Mice were randomly divided into two groups: a YJL-4 group and a control group with 9 mice per group; each group had three time points. […] The mice were humanely sacrificed 1 h, 2 h, or 4 h after injection. The brain, heart, lungs, liver, kidneys, stomach, small intestine, blood, muscles, bones, and tumor were collected and weighed, and the radioactivity was measured. The biodistribution results are expressed as the percent of the injected dose per gram of tissue (% ID/g).

[4] = test system: MDA-MB-231 tumor-bearing nude mice; assay: Small animal PET imaging; type: in vivo, BALB/c nude mice; conditions: 2 and 4 h after injection, approx. 7.4 MBq/200 μL via tail vein, static 10-min PET, n = 3
Procedure: Human breast cancer cells (MDA-MB-231 cells from the Cell Bank of the Chinese Academy of Sciences) were cultured in high-glucose DMEM supplemented with 10% fetal bovine serum and 1% double antibiotic mixture (penicillin‒streptomycin mixture) at 37 °C in 5% CO2. Twenty-four four- to five-week-old female specific pathogen-free (SPF) BALB/c nude mice (Hangzhou Ziyuan Experimental Animal Technology Co., Ltd., China, license number: SCXK(Zhe) 2019–0004) were used to establish the MDA-MB-231 tumor model by subcutaneously inoculating 0.1 mL of cell suspension (50 µL of PBS + 50 µL of Matrigel) containing 1 × 10^6 MDA-MB-231 cells at the base of the right forelimb of each mouse. The animal studies were approved by the ethics committee of Qingdao University, and the management of the animals adhered to the animal ethics standards.
Six tumor-bearing nude mice were selected for imaging when the tumor diameter reached 0.8–1.0 cm. Mice were randomly divided into two groups: a YJL-4 group and a control group, with 3 mice per group; each group had two time points. Each tumor-bearing nude mouse was injected with approximately 7.4 MBq/200 μL of ^68Ga-YJL-4 or ^68Ga-kVar7 through the tail vein, and the mice were anesthetized with 2% isoflurane at 2 and 4 h after injection and imaged using static 10-min PET and moderate-resolution whole-body CT. […]

[5] = Serum protein binding; type: in vitro ADME, mouse
Procedure: The resulting mixture was vortexed for 1 min and centrifuged (13,000 rpm) for 5 min. The supernatant was transferred to a 1.7 ml Eppendorf tube and then further centrifuged at 13,000 rpm for 2 min. The supernatant and sediment were collected separately, and the radioactivity was measured with a gamma counter to determine the serum protein binding of the radiotracer.

CC(C)C[C@H](NC(=O)[C@H](CC(=O)O)NC(=O)[C@H](CC(C)C)NC(=O)[C@H](CC(C)C)NC(=O)[C@H](CC(C)C)NC(=O)[C@@H](NC(=O)[C@H](CC(=O)O)NC(=O)[C@@H](NC(=O)[C@@H]1CCCN1C(=O)[C@H](Cc1ccccc1)NC(=O)[C@H](CC(C)C)NC(=O)[C@H](CC(C)C)NC(=O)[C@H](CC(=O)O)NC(=O)[C@H](C)NC(=O)[C@H](Cc1ccc(O)cc1)NC(=O)[C@H](CCCNC(=N)N)NC(=O)[C@H](C)NC(=O)[C@H](Cc1c[nH]c2ccccc12)NC(=O)[C@@H]1CCCN1C(=O)[C@H](CC(N)=O)NC(=O)[C@H](CCC(N)=O)NC(=O)[C@H](CC(=O)O)NC(=O)[C@H](CC(=O)O)NC(=O)[C@H](CS)NC(=O)[C@H](C)NC(=O)CCCCCNC(=S)Nc1ccc(CC2CN(CC(=O)O)CCN(CC(=O)O)CCN2CC(=O)O)cc1)[C@@H](C)O)[C@@H](C)O)C(N)=O (stereo partly drawn) [^68Ga-YJL-4, metal not drawn] ({X1-Ahx}-ACDDQNPWARYADLLFPTDTLLLDL-NH2)
Radiochemical purity after incubation in mouse serum [1]: ~95% | Radiochemical purity after incubation in human serum [2]: ~95% | tissue uptake at 1 h ([3]; Biodistribution in tumors): 5.94 ± 1.27 %ID/g | tissue uptake at 2 h ([3]; Biodistribution in tumors): 6.72 ± 1.69 %ID/g | tissue uptake at 4 h ([3]; Biodistribution in tumors): 4.54 ± 0.58 %ID/g | tissue uptake at 1 h ([3]; Distribution in the blood): 19.6 ± 3.92 %ID/g | tissue uptake at 2 h ([3]; Distribution in the blood): 8.23 ± 3.47 %ID/g | tissue uptake at 4 h ([3]; Distribution in the blood): 3.38 ± 1.91 %ID/g | tissue uptake at 1 h ([3]; Distribution in the liver): 20.5 ± 3.64 %ID/g | tissue uptake at 2 h ([3]; Distribution in the liver): 14.5 ± 3.98 %ID/g | tissue uptake at 4 h ([3]; Distribution in the liver): 10.2 ± 2.77 %ID/g | Visualization of tumors by PET [4]: clearly visualized | fraction unbound at 30 min ([5]; mouse, serum): 0.678 | fraction unbound at 120 min ([5]; mouse, serum): 0.685

CC(C)C[C@H](NC(=O)[C@H](CCCCN)NC(=O)[C@H](CC(C)C)NC(=O)[C@H](CC(C)C)NC(=O)[C@H](CC(C)C)NC(=O)[C@@H](NC(=O)[C@H](CCCCN)NC(=O)[C@@H](NC(=O)[C@@H]1CCCN1C(=O)[C@H](Cc1ccccc1)NC(=O)[C@H](CC(C)C)NC(=O)[C@H](Cc1c[nH]c2ccccc12)NC(=O)[C@H](CCCCN)NC(=O)[C@H](CC(C)C)NC(=O)[C@H](Cc1ccc(O)cc1)NC(=O)[C@H](CCCNC(=N)N)NC(=O)[C@H](C)NC(=O)[C@H](Cc1c[nH]c2ccccc12)NC(=O)[C@@H]1CCCN1C(=O)[C@H](CC(N)=O)NC(=O)[C@H](CCC(N)=O)NC(=O)[C@H](CCC(=O)O)NC(=O)[C@H](CCC(=O)O)NC(=O)[C@H](CS)NC(=O)[C@H](C)NC(=O)CN1CCN(CC(=O)O)CCN(CC(=O)O)CC1)[C@@H](C)O)[C@@H](C)O)C(N)=O [^68Ga-kVar7, metal not drawn, reference compound] ({NOTA}-ACEEQNPWARYLKWLFPTKTLLLKL-NH2; N-terminus assumed)
Radiochemical purity after incubation in mouse serum ([1]; 200 µL labeled peptide (18.5 MBq) in 1.0 mL mouse serum, 37 °C, 240 min): ~95% | Radiochemical purity after incubation in human serum ([2]; 200 µL labeled peptide (18.5 MBq) in 1.0 mL fresh human serum, 37 °C, 240 min): ~95% | tissue uptake at 1 h ([3]; 1 h after injection, 1.85 MBq/200 μL via tail vein, mean ± SD, n = 3, read-out: Distribution in the blood): 20.6 ± 4.73 %ID/g | tissue uptake at 1 h ([3]; 1 h after injection, 1.85 MBq/200 μL via tail vein, mean ± SD, n = 3, read-out: Distribution in the liver): 21.3 ± 2.93 %ID/g | tissue uptake at 2 h ([3]; 2 h after injection, 1.85 MBq/200 μL via tail vein, mean ± SD, n = 3, read-out: Distribution in the blood): 9.88 ± 2.71 %ID/g | tissue uptake at 2 h ([3]; 2 h after injection, 1.85 MBq/200 μL via tail vein, mean ± SD, n = 3, read-out: Distribution in the liver): 14.8 ± 3.87 %ID/g | tissue uptake at 4 h ([3]; 4 h after injection, 1.85 MBq/200 μL via tail vein, mean ± SD, n = 3, read-out: Distribution in the blood): 3.17 ± 1.6 %ID/g | tissue uptake at 4 h ([3]; 4 h after injection, 1.85 MBq/200 μL via tail vein, mean ± SD, n = 3, read-out: Distribution in the liver): 11 ± 2.77 %ID/g | Visualization of tumors by PET [4]: not visualized | fraction unbound at 30 min ([5]; mouse serum, 37 °C, 30 min, 0.37 MBq, acetonitrile precipitation, gamma counter, mean ± SD, read-out: Serum protein binding rate (converted)): 0.723 | Serum protein binding rate ([5]; mouse serum, 37 °C, 60 min, 0.37 MBq, acetonitrile precipitation, gamma counter, mean ± SD): 27.89 ± 2.02% | fraction unbound at 120 min ([5]; mouse serum, 37 °C, 120 min, 0.37 MBq, acetonitrile precipitation, gamma counter, mean ± SD, read-out: Serum protein binding rate (converted)): 0.75 | Serum protein binding rate ([5]; mouse serum, 37 °C, 240 min, 0.37 MBq, acetonitrile precipitation, gamma counter, mean ± SD): 27.54 ± 0.86%
